According to patent US20060148683A1, “Detection and treatment of intravascular lesions” (priority 2001, published 2006):

Tested on: thrombus
Experiment: Treatment of a thrombus in guinea pig inferior vena cava monitored by catheter fluorescence detection
Format: in vivo
Conditions: guinea pig IVC thrombus; tPA delivered through the catheter after optical agent 0.02 μmol/kg
Method: A guinea pig (Harley, male) is anaesthetized. […] The vessel is allowed to recover for 10 mins. A 1 cm portion of the IVC is clamped and human thrombin (50 μL, 4 units) is injected into the vessel to promote thrombus formation. The lower clamp is opened and closed to allow partial blood flow to the segment. After 2-3 mins., the clips are removed. The thrombus is allowed to age in the animal for 30 mins. At this point, the optical agent is administered at a dose of 0.02 μmol/kg, via injection into the jugular vein. After 30 mins., a catheter with an optical fluorescence detector is inserted into the IVC and the thrombus visualized by detecting the fluorescence signal emitted by the fibrin-optical agent complexes on the thrombus. […] TNKASE™ (Tenecteplase) is a commercially approved tissue plasminogen activator (tPA) produced by recombinant DNA technology and sold by Genetech. The drug is administered intravenously at a dose of 30-50 mg, depending on patient weight.

B1: Tissue plasminogen activator (protein, UniProt P00750 36-562, looked up)
Tissue-type plasminogen …: SYQVICRDEKTQMIYQQHQSWLRPVLRSNRVEYCWCNSGRAQCHSVPVKSCSEPRCFNGGTCQQALYFSDFVCQCPEGFAGKCCEIDTRATCYEDQGISYRGTWSTAESGAECTNWNSSALAQKPYSGRRPDAIRLGLGNHNYCRNPDRDSKPWCYVFKAGKYSSEFCSTPACSEGNSDCYFGNGSAYRGTHSLTESGASCLPWNSMILIGKVYTAQNPSAQALGLGKHNYCRNPDGDAKPWCHVLKNRRLTWEYCDVPSCSTCGLRQYSQPQFRIKGGLFADIASHPWQAAIFAKHRRSPGERFLCGGILISSCWILSAAHCFQERFPPHHLTVILGRTYRVVPGEEEQKFEVEKYIVHKEFDDDTYDNDIALLQLKSDSSRCAQESSVVRTVCLPPADLQLPDWTECELSGYGKHEALSPFYSERLKEAHVRLYPSSRCTSQHLLNRTVTDNMLCAGDTRSGGPQANLHDACQGDSGGPLVCLNDGRMTLVGIISWGLGCGQKDVPGVYTKVTNYLDWIRDNMRP
notes: thrombolytic
Optical fluorescence signal of fibrin-optical agent complexes on thrombus (clot dissolution and lysis): optical fluorescence signal decreases
